Source: the nanobody polyreactivity screen of Harvey et al. (2022)

Experiment: yeast display, Sf9 membrane polyspecificity reagent, FACS + sequencing; frameworks hold sequencing errors
Outline: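 Galactose induction of a Saccharomyces cerevisiae BJ5465 synthetic nanobody display library ran 36–48 hours. The cells were then stained for 1 hour at 4 °C with 10% biotinylated, detergent-solubilized Sf9 membrane reagent, pulled down on streptavidin microbeads and FACS-sorted into low and high (top ~1%) gates on expression and reagent-binding fluorescence. Labels for polyreactivity follow the gate of origin.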

Row | Sequence | polyreactivity (PSR sort gate)
1 | QVQLVESGGGLVQAVGSLLLSCAASGSTFRYNAMGWYRQAPGKEREFVATISWTTGSSYYADSVKGRFTISRDNAKNTVYLQLNSLKPEDTAFYFCAADASLFSDFRDYDYWGQGTQVPVSS | low polyreactivity
2 | QVQLVESGGGLVQAGGSLRLRCAASANTFGFYAMGWYRQAPGKERELVAGITSGDSTYYADSVKGRFTISRDNAKNTVYLQMNSLKPEDSAVYYCATAPYVSSRRYGPYEYWGQGTQVTVSS | low polyreactivity
3 | QGQLVESGGGLVQAGCSLRLSCAASGITYTPYALGWYRQAPGKAREFVASISVSGGSTYYADSVKGRFRFSRVNAKNTVYLEMNCLKPEDTAVYYCNAVSYRKHYFNSLYGYWGLGTQVTVSS | high polyreactivity
4 | QVQLVESGGGLVQAGGSLRLSCPASGFTFDVNAMGSYRQAPGKERELVATISSNGGSTYYADSVKGRFTISRDNAKNTVYLQMNSLKPEDTAVYYCNRGEIYFDNDDFDYWGQGTQVTVSS | low polyreactivity
5 | QVQLVESGGGIDQAGGSLRLSCAASGSNFYTYAMGWYRQAPGKEREFVAAITRGGARTYYADSVKWRFTISRDNAKNTVYLQMNSLKPEDTAVYYCAKLGKATTQVGSDYWGQGTQVSVSS | low polyreactivity
6 | QVQLVESGGGLVQAGGSLRLSCAASGSIFSYYAMGWYRQAPGKERELVAAITVRGGSTYYADSVKGRFTISRDNAKNTVYLQMNSLKPEDTAVYYCAADWLDESFSYGPYYYWGQGTQVTVSS | low polyreactivity
7 | QVQLVESGGGLVQAGGSLRLTCAASGFTFYLNAMGWYRQAPGKERELVAAITDDGDSTYYADSVKGRFTISRDNAKNTVYLQMNSLKPEDTAVYYCNTVYGPDLDGTEYDYWGQGTQVTVSS | low polyreactivity
8 | QVQLVESGGGLVQAGGSLRLSCAASGRTFRGYAMGWYRQAPGKERELVAAITRSGGSTYADSVKGRFTISRDNAKNTFYLQMNSLKPEDTAVYYCAADRGYKYYYWGQGTQVTVSS | high polyreactivity
9 | QVQLVESGGGLVQAGGSLRLSCAASGRIFKSYTMGWYRQAPGKERALVAGITWSGGSTYYADSVKGRFTISRDNAKNTVYLQMNSLKPDDTAVYYCATKTFYNYGFWGQGTQVTVSS | high polyreactivity
10 | QVQLVESGGGLVHAGGSLRLSCAASGITFYEYTMGWYRQAPGKERELVADIDFSGDSTYYSDSVKGRFTISRDYAKNTVYLQMNSLKPEDTAVYYCAVEIIYWWYIYEYWGQGSQVTVSS | high polyreactivity
11 | QVQLVESGGGLVQAGGSLRLSCAASGRTFQGKAMGWYRQAPGKERELVAAISSSGGRTYYADSVKGRFTISRDNAKNTVYLQMNSLKPVDTSVYYCAARNYFWGQGTQVTVSS | low polyreactivity
12 | QVQLVESGGGLVQAGGSLRLSCAASGRIFQWNAMGWYRQAPGKERELVAAITYSGSSTNYADSVKGRFTISRDNAKNTVYLQMNSLKPEDTAVFYCNRDFYQYLSYFWHYGYWGQGTQVTVSS | low polyreactivity
13 | QVLLQESGGGLVQAGGSLRLGCAASGTISPAYYMGRYHQAPGKEREFVAAITYGTNTYYADSVKGRFTISRDNAKNSVYLQMNSLKPEDTAVYYCSATAGYNGAHDYWGQGTQVTVSS | low polyreactivity
14 | QVQLVESGGGLVQAGGSLRLSCAASGFTFYKYTMGWYRQAPGKERELVAAISARGGSTYYADSVKGRFTISRDNAKNTVYLQMNSLKPEDTAVYYCAADYWRTYGLGYDYWGQGTQVTVSS | high polyreactivity
15 | QVQLVESGGGLVQAGGSLRLSCAASGFTFFSNAMGWYRQAPGKERELVAAITSSGGSTYADSVKGRFTISRDNAKNTVYLQMNSLKPEDTAVYYCAADALAPPGGFKEYDYWGQGTQVTVSS | low polyreactivity
16 | QVQLVESGGGLVQAGGSLRLSCAASGRTFPPYAMGWYRQAPGKERELVASIRRGGSTHYADSVKGRFTISRDNAKNTVYLQMNSLKPEDTAVYYCNADVIFGYTHYNYWGQGTQVTVSS | high polyreactivity
